Paper PMC7299284, “Studies in humanized mice and convalescent humans yield a SARS-CoV-2 antibody cocktail” (Science (New York, N.y.), 2020)

Tests used:
[1] = target: T1, RBD of SARS-CoV-2 spike (construct not told: ACE2 blocking, cross-competition and HDX-MS experiments) (SARS-CoV-2, UniProt P0DTC2); assay: cross-competition binding assay; cross-competition of the nine most-potent neutralizing antibodies for binding to RBD (fig. S7)
T1 construct: also called spike protein RBD

[2] = target: T1, RBD of SARS-CoV-2 spike (construct not …); assay: HDX-MS; hydrogen-deuterium exchange mass spectrometry of spike protein RBD with each of nine antibodies; conditions: both partners purified

B1: REGN10987 (antibody, V domains shown)
VH: QVQLVESGGGVVQPGRSLRLSCAASGFTFSNYAMYWVRQAPGKGLEWVAVISYDGSNKYYADSVKGRFTISRDNSKNTLYLQMNSLRTEDTAVYYCASGSDYGDYLLVYWGQGTLVTVSS
VL: QSALTQPASVSGSPGQSITISCTGTSSDVGGYNYVSWYQQHPGKAPKLMIYDVSKRPSGVSNRFSGSKSGNTASLTISGLQSEDEADYYCNSLTSISTWVFGGGTKLTVL
notes: source: CHO cells, transfected, recombinant fully human antibody; copies: 2 + 2
binding result [1]: binds

B2: REGN10933 (antibody, V domains shown)
VH: QVQLVESGGGLVKPGGSLRLSCAASGFTFSDYYMSWIRQAPGKGLEWVSYITYSGSTIYYADSVKGRFTISRDNAKSSLYLQMNSLRAEDTAVYYCARDRGTTMVPFDYWGQGTLVTVSS
VL: DIQMTQSPSSLSASVGDRVTITCQASQDITNYLNWYQQKPGKAPKLLIYAASNLETGVPSRFSGSGSGTDFTFTISGLQPEDIATYYCQQYDNLPLTFGGGTKVEIK
notes: as for B1
binding result [2]: binds
